Data published in PMC8967866.

Target: Cyanophora paradoxa photosystem I monomer2 (PSI-monomer unit lacking PsaK) (Cyanophora paradoxa (endogenous, strain NIES-547)) (UniProt P48112)
Test: cryo-EM structure; PSI tetramer purified from Cyanophora thylakoids; GraFix (glutaraldehyde cross-linked) tetramer at 3.8 Å with C2 symmetry; unfixed wild-type tetramer at 4.0 Å; focused maps of monomer1 and monomer2 at 3.3 Å and 3.2 Å; 0.03% β-DDM, 50 mM Mes-NaOH pH 6.5

Chain of UniProt P48112 (P48112 whole entry, looked up): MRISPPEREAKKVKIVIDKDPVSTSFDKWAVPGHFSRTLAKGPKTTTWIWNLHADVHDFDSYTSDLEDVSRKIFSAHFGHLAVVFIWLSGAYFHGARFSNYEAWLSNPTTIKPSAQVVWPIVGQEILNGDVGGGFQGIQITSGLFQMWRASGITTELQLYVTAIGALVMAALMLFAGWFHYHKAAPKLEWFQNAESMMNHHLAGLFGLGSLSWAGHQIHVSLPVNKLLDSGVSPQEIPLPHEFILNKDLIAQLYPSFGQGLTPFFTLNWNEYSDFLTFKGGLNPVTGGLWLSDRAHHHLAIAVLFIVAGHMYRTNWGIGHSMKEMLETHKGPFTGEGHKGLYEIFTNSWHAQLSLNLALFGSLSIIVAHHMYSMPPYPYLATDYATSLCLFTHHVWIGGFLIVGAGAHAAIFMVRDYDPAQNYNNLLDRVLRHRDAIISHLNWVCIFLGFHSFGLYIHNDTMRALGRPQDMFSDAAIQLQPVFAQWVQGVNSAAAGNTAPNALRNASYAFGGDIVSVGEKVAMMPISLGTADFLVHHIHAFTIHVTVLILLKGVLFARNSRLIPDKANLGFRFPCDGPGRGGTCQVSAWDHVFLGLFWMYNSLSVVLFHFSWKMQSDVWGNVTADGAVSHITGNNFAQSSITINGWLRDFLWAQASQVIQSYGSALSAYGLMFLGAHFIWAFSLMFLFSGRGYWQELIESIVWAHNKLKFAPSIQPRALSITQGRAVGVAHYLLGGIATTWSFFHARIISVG

- stoichiometry N (PSI-monomer units): 4
Substance: Cyanophora paradoxa photosystem I monomer1 (PSI-monomer unit with PsaK) (from UniProt P48112 1-752; P31173 1-81; Q9T4W8 54-220; P48114 1-70; P48115 26-186; P48116 1-35; P48117 1-40; P48185 1-31) (complex)
